Laboratory results from US20240343810A1 (published 2024).

T1: human ICOS-mFc (Chimerigen) (human, UniProt Q9Y6W8 21-140)
T1 construct: Bought; also called recombinant human ICOS protein; hICOS; not shown: mouse Fc of the bought fusion
T1 sequence: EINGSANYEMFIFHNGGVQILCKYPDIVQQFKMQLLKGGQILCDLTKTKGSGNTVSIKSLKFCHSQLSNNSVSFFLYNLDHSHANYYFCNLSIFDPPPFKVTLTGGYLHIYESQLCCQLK

T2: mouse ICOS-mFc (Chimerigen) (mouse, UniProt Q9WVS0 21-141, limits assumed)
T2 construct: Bought; also called recombinant mouse ICOS protein; mICOS; not shown: mouse Fc of the bought fusion
T2 sequence: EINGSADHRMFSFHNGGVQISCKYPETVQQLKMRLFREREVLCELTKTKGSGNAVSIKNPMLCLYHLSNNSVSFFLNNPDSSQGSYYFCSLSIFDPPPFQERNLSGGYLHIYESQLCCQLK

T3: human ICOS expressed on cells (human, UniProt Q9Y6W8 21-199)
T3 sequence: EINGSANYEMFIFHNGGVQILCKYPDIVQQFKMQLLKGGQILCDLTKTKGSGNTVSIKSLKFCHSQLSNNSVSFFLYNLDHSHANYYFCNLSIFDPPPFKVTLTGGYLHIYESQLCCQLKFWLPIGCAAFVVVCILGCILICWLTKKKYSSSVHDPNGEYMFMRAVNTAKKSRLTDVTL

T4: Biotinylated human ICOS protein (human, UniProt Q9Y6W8 21-140, limits assumed, biotinylated (sites not given))
T4 construct: Captured on the NLC chip in the avidity SPR
T4 sequence: T1 sequence

B1: STIM001 (antibody, human IgG1, kappa)
heavy: not shown
light: DIVMTQSPLSLPVTPGEPASISCRSSQSLLHSNEYNYLDWYLQKPGQSPQLLIFLGSNRASGVPDRFSGSGSGTDFTLKITRVEAEDVGIYYCMQSLQTPLTFGGGTKVEIKRTVAAPSVFIFPPSDEQLKSGTASVVCLLNNFYPREAKVQWKVDNALQSGNSQESVTEQDSKDSTYSLSSTLTLSKADYEKHKVYACEVTHQGLSSPVTKSFNRGEC
notes: Anti-ICOS monospecific antibody, tested as human IgG1; also called STIM001 monoclonal IgG1 antibody
B2: STIM003 (antibody, human IgG1, kappa)
heavy: not shown
light: EIVLTQSPGTLSLSPGERATLSCRASQSVSRSYLAWYQQKRGQAPRLLIYGASSRATGIPDRFSGDGSGTDFTLSISRLEPEDFAVYYCHQYDMSPFTFGPGTKVDIKRTVAAPSVFIFPPSDEQLKSGTASVVCLLNNFYPREAKVQWKVDNALQSGNSQESVTEQDSKDSTYSLSSTLTLSKADYEKHKVYACEVTHQGLSSPVTKSFNRGEC
notes: Anti-ICOS monospecific antibody, tested as human IgG1; also called STIM003 monoclonal IgG1 antibody

Columns and labels:
[1] = target: T1, human ICOS-mFc (Chimerigen); experiment: DELFIA ELISA on coated human ICOS-mFc, N=3
Procedure: (§1) Recombinant ICOS proteins, human ICOS-mFc or mouse ICOS-mFc (Chimerigen) were diluted in 1×PBS and added to Black Hi-bind plates (Griener) at 1 μg/ml, 50 μl/well. Recombinant PD-L1 proteins, human PD-L1-Flag-His or mouse-His were diluted in 1×PBS and added to Black Hi-bind plates (Griener) at 4 μg/ml, 50 μl/well. The plates were left overnight at 4° C. The next day plates were washed 3× with 300 μl/well of 1×PBS+0.1% Tween and blocked with 200 ul/well of 1×PBS+1% BSA blocking buffer for 1 hr at RT on a plate shaker. Plates were washed 3× with 300 μl/well of 1×PBS+0.1% Tween.
(§2) However, human-PD-L1 mAb² antibodies were diluted in 1×PBS+0.1% BSA buffer and diluted 1 in 2 from a starting working concentration of 0.066 μM over an 11 point titration. Titrated antibodies were added to the plates, 50 μl/well and left to incubate for 1 hr at R.T on a plate shaker. Plates were washed 3× with 300 μl/well of 1×PBS+0.1% Tween.
(§3) DELFIA® Eu-labelled Anti-human IgG (Perkin-Elmer) was diluted 1:500 in DELFIA Assay buffer (Perkin-Elmer) and added to the assay plate (50 μl/well), left to incubate for 1 hr at RT on a plate shaker. […] After incubation, assay was read on Envision plate reader (Perkin Elmer), Time-resolved fluorescence (TRF) was measured at 615 nm.

[2] = target: T5, human PD-L1 expressed on cells (human, UniProt Q9NZQ7 19-290); experiment: Flow cytometry on CHO human PD-L1 cells
T5 construct: also called CHO-S cells transfected with the cDNA coding for human PD-L1; CHO human PD-L1

[3] = target: T2, mouse ICOS-mFc (Chimerigen); experiment: HTRF, mouse ICOS-mFc, competitor mouse B7-H2-Alexa 647, n1
Procedure: (§4) 5 μl of human ICOS-mFc (Chimerigen) at 20 nM (5 nM final) or 5 ul of mouse ICOS-mFc (Chimerigen) at 4 nM (1 nM final) were added to relevant assay wells. Plate was incubated for 1 hour (hr) at room temperature (RT).
(§5) After incubation, assay was read on Envision plate reader (Perkin Elmer) using a standard HTRF protocol. 620 nm and 665 nm channel values were exported to Microsoft Excel and % Delta-F and % Neutralisation calculations performed. Titration curves and IC50 values [M] were plotted using Graphpad (Prism). IC50 values were calculated by first transforming the data using equation X=Log(X). The transformed data was then fitted using nonlinear regression, using fitting algorithm, log (inhibitor) vs. response—variable slope (four parameters).

[4] = target: T1, human ICOS-mFc (Chimerigen); experiment: DELFIA ELISA on coated human ICOS-mFc, N=1
Procedure: as §1, §2, §3

[5] = target: T3, human ICOS expressed on cells; experiment: cell-based or functional assay
[6] = target: T2, mouse ICOS-mFc (Chimerigen); experiment: HTRF, mouse ICOS-mFc, competitor mouse B7-H2-Alexa 647, n2
Procedure: as §4, §5

[7] = target: T2, mouse ICOS-mFc (Chimerigen); experiment: DELFIA ELISA on coated mouse ICOS-mFc, N=2
Procedure: as §1, §2, §3

[8] = target: T4, Biotinylated human ICOS protein; experiment: SPR ProteOn avidity format, biotinylated human ICOS on NLC chip, antibody analyte, 25 C
Procedure: Biotinylated human ICOS protein diluted at 7.5 μg/mL in running buffer (1× HBS-EP+ Buffer Technova, cat. No. H8022) was captured on a NLC sensor chip (Bio-Rad, cat No 1765021). The surface was then blocked using biocytin (Sigma Aldrich, cat No B1758) at 1 mg/mL.
The assay was carried out at 25° C.
The buffer injection (i.e. 0 nM) was used to double reference the sensorgrams. The analysis was carried out using the equilibrium model inherent to the ProteOn's analysis software for each mAb² construct.

T5 sequence (Q9NZQ7 19-290 limits assumed): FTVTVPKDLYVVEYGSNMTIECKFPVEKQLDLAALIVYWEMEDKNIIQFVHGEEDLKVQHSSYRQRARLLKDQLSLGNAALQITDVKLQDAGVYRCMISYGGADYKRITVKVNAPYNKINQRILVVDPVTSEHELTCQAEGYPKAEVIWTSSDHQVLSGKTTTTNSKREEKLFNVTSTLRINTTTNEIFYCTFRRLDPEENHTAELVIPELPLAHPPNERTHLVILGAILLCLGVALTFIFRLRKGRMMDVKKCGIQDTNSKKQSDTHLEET

Binder | EC50 [1] [nM] | binding result [2] | IC50 [3] [nM] | EC50 [4] [nM] | EC50 of IFN-γ production, plate-bound antibody, human T-cells + CD3/CD28 beads, donor 276 [5] [nM] | EC50 of IFN-γ production, plate-bound antibody, human T-cells + CD3/CD28 beads, donor 278 [5] [nM] | EC50 of IFN-γ production, plate-bound antibody, human T-cells + CD3/CD28 beads, donor 289 [5] [nM] | EC50 of IFN-γ production, plate-bound antibody, human T-cells + CD3/CD28 beads, donor 295 [5] [nM] | EC50 of IFN-γ production, plate-bound antibody, human T-cells + CD3/CD28 beads, median [5] [nM] | IC50 [6] [nM] | EC50 [7] [nM] | koff [8] [s⁻¹]
B1 | 41.3 | no binding (tested: 198 nM) | 7.98 | 20 | ~9.9 | ~10.2 | ~11.2 | 14.5 | 10.7 | 8.91 | 18.7 | 0.000456
B2 | 0.727 | no binding (tested: 198 nM) | 0.87 | 0.488 | 7.1 | 3.8 | ~4 | ~11.6 | 5.55 | 0.14 | 0.386 | 0.000449
